Assay results published in patent US20110034385A1, “Compositions Useful for the Treatment of Diabetes and Other Chronic Disorder” (NATIONAL INSTITUTE OF IMMUNOLOGY, priority 2008, published 2011).

Key:
[1] = test system: STZ treated rats; test: Intraperitoneal glucose tolerance test (IPGTT); assay type: in vivo, rat
Procedure: The STZ treated (n=12) and normal rats (n=4) were kept on fasting for 12 hrs. Blood glucose levels were monitored as described above. For glucose tolerance test was done. […] Blood glucose levels were monitored at 0, 30, 90, 150, 270 and 330 min after treatment. Serum was isolated for various time points and a graph was plotted between blood glucose level and time. FIG. 12 provides blood glucose profile of Intraperitoneal Glucose Tolerance Test (IPGTT).

[2] = Serum insulin quantification by ELISA; settings: in 30 min
Procedure: Serum was isolated from the blood samples collected and stored at −20° C. till further analysis.

[3] = test system: fat-fed/streptozotocin-diabetic rats; test: Type II diabetes model, fat-fed/streptozotocin-diabetic rats; assay type: in vivo, rat
Procedure: Male Wistar rats, 7 weeks of age, and weighing approximately 200 g, were used for all studies. […] After 2 weeks on either diet, animals (with the exception of non-injected controls) after an overnight fast were injected with STZ (50 mg/kg) into the tail vein via a temporary indwelling 24-gauge catheter. Animals had free access to food and water after the STZ injection, and both STZ-injected and non-injected animals were continued on their original diets (chow or fat) for the duration of the study.

[4] = test system: insulin signaling cascade (PI3K, Akt, GSK3β, ERK1/2) in rat adipocytes; test: Western blot of insulin signaling cascade in cultured adipocytes; assay type: cell-based; settings: compared to control
Procedure: Rat adipocytes were isolated and cultured according to the method described by Björntorp et al. (Björntorp, P., Karlsson, M., Pettersson, P. & Sypniewska, G. Differentiation and function of rat adipocyte precursor cells in primary culture. J. Lipid Res. 21, 714-723 (1987)). Male Wistar rats fed freely were sacrificed and epididymal fat tissue was dissected and collected in reagent A (HBSS, 100 U/ml penicillin, 100 μg/ml streptomycin and […] gentamycin). The tissue was washed properly in HBSS. Following this the tissue was cut and minced finely and transferred to a falcon, centrifuged at 200 g for 2 min. The layer of transparent oil was removed and the adipocyte cell layer (thick and dense) was added to three times the volume of reagent B (reagent A containing 0.1% BSA and 1 mg/ml Collagenase) in a flask. The flask was incubated at 37° C. for 60 min with continuous slow shaking. The reaction was stopped by addition of DMEM complete media (with HEPES 15 mM, glc, 0.1% BSA, 50 nM adenosine and 1% fetal bovine serum) three times the volume and incubated at room temperature for 5 min. […]
After incubation, the cells were collected in a falcon tube and centrifuged at 200 g for 10 min. […] Adipocytes treated with (a) PBS, insulin, SIA-II, insulin released from SIA-II, (b) serum as indicated, and analysed for insulin signaling.

[5] = test system: STZ-induced diabetic rats; test: Clinical parameters for the evaluation of toxicity of SIA II; assay type: in vivo, rat
[6] = test system: Male wistar rats; test: Hyperglycemic clamp after treatment with SIA II; assay type: in vivo, rat; settings: one week, one month and three month
Procedure: Male wistar rats were anesthetized (Isoflurane 2%) and a carotid and jugular catheter installed to allow blood withdrawal and glucose injections (20% glucose solution) to clamp blood glucose level at 600 mg/dL. Following a 12 hours fasting period, glucose was infused in all groups to make them hyperglycemic. This was followed by blood withdrawal at indicated time intervals, for blood glucose measurements and the rate of glucose infusion to retain them hyperglycemic were calculated. This procedure was repeated after one and three months of SIA II administration (FIG. 16 a-c).

[7] = test system: MCF 7 cells; test: MTT cell proliferation assay; assay type: cell-based; settings: 3 days after treatment
Procedure: Cells were plated in 24-well plates with 10,000 cells/well in regular DMEM media containing 10% FBS. All treatments were done in triplicates. Growth was measured 3 days after treatment. Growth was assayed by the MTT assay. A total of 50 μl of 5 mg/ml MTT solution in PBS was added to each well. After incubation for 4 h at 37° C., formazan crystals were lysed with 500 μl of solubilization solution (20% SDS, 50% DMSO). Absorbance was measured with a plate reader at 570 nm using a 670-nm differential filter.

[8] = test system: STZ-induced diabetic rats; test: Blood glucose control in streptozotocin-induced diabetic rats; assay type: in vivo, rat
Procedure: Nine weeks old Male Wistar rats (Rattus norvegicus albinus, Rodentia mammalia) weighing 210±10 g were used. Rats were housed in commercially available polypropylene cages and maintained under controlled temperature conditions on a 12 h light-dark cycle and allowed to access food and water ad libitum.
Male Wistar Rats weighing 250-300 g were divided into four groups and blood glucose estimation was done using Roche Accu Check glucose strips. Rats were kept on fasting for 48 hours. 50 mg/kg b.wt of Streptozotocin prepared freshly in citrate buffer (pH 4.5) was administered intraperitoneally to 10-20 rats. Food was provided immediately and blood glucose levels were checked after three days. The animals were grouped according to their blood glucose level (group I: 250-350 mg/dl, group II: 350-450 mg/dl and group III: >450 mg/dL).
A group of 5 normal rats injected 100 μl of PBS, served as the non-diabetic control. Body weight and blood glucose levels, both pre-prandial after 8-10 hr fasting and post-prandial were checked initially daily and then with decreasing frequency.

[9] = test system: STZ-induced diabetic rats; test: Clinical parameters for the evaluation of toxicity of SIA II; assay type: in vivo, rat; settings: end of three month study
Description: Serum isolated from blood samples collected at the end of the three month study and subjected to various tests indicated in the Table. Results are mean±s.d. of three different experiments having n=4 animals in each group.

[10] = insulin: single dose of 4 IU/kg daily, SIA: single injection 200 μg

Insulin: free, non-supramolecularly organized insulin; bovine insulin 4 U/kg intraperitoneally
time for elevated blood glucose to return to pre challenged levels ([1]; after glucose infusion 3 g/kg IP): ≤ 1.5 h | onset of effect in IPGTT ([1]; severe hyperglycemia): ≤ 30 min | serum bovine insulin in IPGTT [2]: ~0.9 ng/mL | B W ([3]; 1 week): 261 | BGL ([3]; 1 week): 420 mg/dL | FFA ([3]; 1 week): 1.9 ± 0.08 mmol/L | Rat Insulin ([3]; 1 week): 37.09 ± 4.7 μU/ml | TG ([3]; 1 week): 0.77 ± 0.05 mmol/L | B W ([3]; 2 week): 263 | BGL ([3]; 2 week): 401 mg/dL | FFA ([3]; 2 week): 2.1 ± 0.08 mmol/L | Rat Insulin ([3]; 2 week): 37.09 ± 4.7 μU/ml | TG ([3]; 2 week): 0.75 ± 0.05 mmol/L | B W ([3]; 3 week): 269 | BGL ([3]; 3 week): 390 mg/dL | FFA ([3]; 3 week): 1.8 ± 0.08 mmol/L | Rat Insulin ([3]; 3 week): 37.09 ± 4.7 μU/ml | TG ([3]; 3 week): 0.73 ± 0.05 mmol/L | BGL ([3]; 4 week): 396 mg/dL | FFA ([3]; 4 week): 2.1 ± 0.08 mmol/L | Rat Insulin ([3]; 4 week): 37.09 ± 4.7 μU/ml | TG ([3]; 4 week): 0.76 ± 0.05 mmol/L | increase of TAGs and FFA levels in serum ([3]; serum): up to 1.5 fold | activation of ERK 1/2 [4]: significant activation | phosphorylation of GSK3β [4]: increased several fold | Adipose Tissue ([5]; Single daily Insulin Injection, end of three month study): Decreased | cataract formation ([5]; diabetic rats): Development of cataract | rate of glucose infused for maintaining hyperglycemic state [6]: decreases over time | proliferation of MCF 7 cells [7]: does not cause proliferation of cells | blood glucose levels ([8]; insulin intraperitoneally everyday): 300 ± 100 mg/dL | fasting blood glucose [8, 10]: 300 to 400 mg/dL | non-fasting blood glucose [8, 10]: 350 to 450 mg/dL | duration of action ([8]; standard insulin injection): 6 to 10 h | Alkaline Phosphatase ([9]; Single daily Insulin Injection): 777.8 ± 89.4 U/L | Bilirubin (Direct) ([9]; Single daily Insulin Injection): 0.36 ± 0.08 mg/dL | Bilirubin (Total) ([9]; Single daily Insulin Injection): 0.40 ± 0.08 mg/dL | Chloride ([9]; Single daily Insulin Injection): 165 ± 23 mEq/L | Phosphorous ([9]; Single daily Insulin Injection): 6.5 ± 1.3 mEq/L | SGOT ([9]; Single daily Insulin Injection): 355 ± 83 U/L | SGPT ([9]; Single daily Insulin Injection): 86 ± 36 U/L | Serum A/G ratio ([9]; Single daily Insulin Injection): 0.595 | Serum Albumin ([9]; Single daily Insulin Injection): 2.5 ± 0.21 g/dL | Serum Creatinine ([9]; Single daily Insulin Injection): 1.01 ± 0.30 mg/dL | Serum Globulin ([9]; Single daily Insulin Injection): 4.2 ± 0.18 g/dL | Serum total proteins ([9]; Single daily Insulin Injection): 6.70 ± 0.21 g/dL | Sodium ([9]; Single daily Insulin Injection): 200 ± 26 mEq/L | Urea ([9]; Single daily Insulin Injection): 58.3 ± 9.2 mg/dL | Uric Acid ([9]; Single daily Insulin Injection): 3.0 ± 0.81 | Adipose Tissue ([9]; Twice daily Insulin Injection): Decreased | Alkaline Phosphatase ([9]; Twice daily Insulin Injection): 489 ± 65 U/L | Bilirubin (Direct) ([9]; Twice daily Insulin Injection): 0.25 ± 0.06 mg/dL | Bilirubin (Total) ([9]; Twice daily Insulin Injection): 0.35 ± 0.1 mg/dL | Chloride ([9]; Twice daily Insulin Injection): 119 ± 26 mEq/L | Phosphorous ([9]; Twice daily Insulin Injection): 6.2 ± 0.95 mEq/L | SGOT ([9]; Twice daily Insulin Injection): 300 ± 56 U/L | SGPT ([9]; Twice daily Insulin Injection): 85 ± 15 U/L | Serum A/G ratio ([9]; Twice daily Insulin Injection): 0.955 | Serum Albumin ([9]; Twice daily Insulin Injection): 3.2 ± 0.19 g/dL | Serum Creatinine ([9]; Twice daily Insulin Injection): 0.88 ± 0.21 mg/dL | Serum Globulin ([9]; Twice daily Insulin Injection): 3.35 ± 0.15 g/dL | Serum total proteins ([9]; Twice daily Insulin Injection): 5.55 ± 0.25 g/dL | Sodium ([9]; Twice daily Insulin Injection): 198 ± 45.5 mEq/L | Urea ([9]; Twice daily Insulin Injection): 60.1 ± 12.36 mg/dL | Uric Acid ([9]; Twice daily Insulin Injection): 3.1 ± 0.56
